Biological target: T1, histidine-rich glycoprotein (HRG), human plasma (human, UniProt P04196 19-525, glycosylated (a total of about 20-KDa glycosyl chains))
T1 construct: histidine-rich glycoprotein, human plasma protein; 525 amino acids before processing and secretion; In the pull-down three bands (BP1, BP2, BP3) were all identified as HRG; BP2 and BP3 were estimated to be proteolytic products of BP1; also called plasma HRG; BP1; source: endogenous, healthy human plasma (pull-down)
T1 sequence (looked up): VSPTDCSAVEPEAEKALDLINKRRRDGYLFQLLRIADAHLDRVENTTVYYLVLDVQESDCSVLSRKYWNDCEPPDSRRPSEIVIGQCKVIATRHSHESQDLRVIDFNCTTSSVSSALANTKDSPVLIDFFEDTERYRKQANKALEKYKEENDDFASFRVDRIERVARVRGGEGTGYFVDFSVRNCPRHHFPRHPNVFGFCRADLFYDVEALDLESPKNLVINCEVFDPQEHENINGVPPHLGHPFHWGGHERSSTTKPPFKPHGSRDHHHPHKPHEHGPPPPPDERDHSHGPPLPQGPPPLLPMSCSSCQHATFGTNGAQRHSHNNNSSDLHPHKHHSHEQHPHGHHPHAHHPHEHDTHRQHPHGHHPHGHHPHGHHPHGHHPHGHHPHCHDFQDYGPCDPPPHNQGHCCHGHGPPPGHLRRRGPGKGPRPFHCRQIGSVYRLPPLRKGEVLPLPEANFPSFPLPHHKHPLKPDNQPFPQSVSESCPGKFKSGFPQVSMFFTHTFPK
Assay: ELISA; 96-well plate coated with purified HRG (100 µg/mL); blocked with Blockmaster DB1130; biotinylated S100A8/A9 at different concentrations; HRP-streptavidin, TMB; background of wells without HRG deducted
Conditions: both partners purified

binding result: binds
B1: human recombinant S100A8/A9 heterodimer (complex)
chain 1: MLTELEKALNSIIDVYHKYSLIKGNFHAVYRDDLKKLLETECPQYIRKKGADVWFKELDINTDGAVNFQEFLILVIKMGVAAHKKSHEESHKE
chain 2: MTCKMSQLERNIETIINTFHQYSVKLGHPDTLNQGEFKELVRKDLQNFLKKENKNEKVIEHIMEDLDTNADKQLSFEEFIMLMARLTWASHEKMHEGDEGPGHHHKPGLGEGTP
modifications: biotinylated in the ELISA (chain and site not stated) | biotinylated in the ELISA (chain and site not stated)
notes: S100A8 (Calgranulin A), human; S100A9 (Calgranulin B), human; Biotinylated in the ELISA; no biotin is mentioned for the cell assays; also called recombinant human S100A8/A9 heterodimer complex; biotinylated human recombinant S100A8/A9 protein; source: recombinant, highly purified, prepared as described previously [43]

Source: article PMC9499646, “Histidine-Rich Glycoprotein Suppresses the S100A8/A9-Mediated Organotropic Metastasis of Melanoma Cells” (International Journal of Molecular Sciences, 2022)
